Experiments:
Test in all cases: SPR
[1] = target: Igh^g2A10 mutant Fab J1/L114F with LC_Q106R (mouse)
[2] = target: Igh^g2A10 mutant Fab J2/L114F with LC_Q106K (mouse)
[3] = target: Igh^g2A10 mutant Fab J2/L114F (mouse)

With “recombinant PfCSP (from UniProt Q7K740 19-374) (natural protein)” the fold increase in affinity over J1/L114F [1] was 18.2 fold, the fold increase in affinity over J2/L114F [2] was 65 fold and the fold increase in affinity over the J2 UCA [3] was 1.49 fold.
